Changes are numbered by the printed parent chain. Names and notes keep the numbering of the source. Values belong to the binder of their own block, whether it stands above or below them.
Assays:
VEGF-A [1] = target: VEGF-A (UniProt P15692-4 27-191, limits assumed); assay: SPR (Biacore), DVD-Ig captured by anti-human Fc, antigen in flow
Protocol: (§1) For example, approximately 9000 RU of goat anti-human Fc specific polyclonal antibody (Thermo Fisher Scientific Inc., Rockford, Ill.) diluted in 10 mM sodium acetate (pH 4.5) is directly immobilized across a CM5 research grade biosensor chip using a standard amine coupling kit according to manufacturer's instructions and procedures at 25 μg/ml. Unreacted moieties on the biosensor surface were blocked with ethanolamine. For kinetic analysis, rate equations derived from the 1:1 Langmuir binding model were fitted simultaneously to multiple antigen injections (using global fit analysis) with the use of Scrubber 2 (BioLogic Software), Biacore Biaevaluation 4.0.1 software or Biacore T100 Evaluation software. Purified antibodies or DVD-Ig molecules were diluted in running buffer for capture across goat anti-human Fc reaction surfaces. Antibodies or DVD-Ig molecules to be captured as a ligand (1 μg/ml) were injected over reaction matrices at a flow rate of 10 μl/minute. During the assay, all measurements were referenced against the capture surface alone (i.e., with no captured antibody or DVD-Ig molecule). […] The equilibrium dissociation constant KD (M) of the reaction between antibodies and the target antigen was then calculated from the kinetic rate constants by the following formula: KD=Koff/Kₒₙ. Binding was recorded as a function of time and kinetic rate constants were calculated.

PDGF-BB [2] = target: PDGF-BB (UniProt P01127 82-190); assay: as above
PDGF-BB (UniProt P01127 82-190), sequence (P01127 82-190): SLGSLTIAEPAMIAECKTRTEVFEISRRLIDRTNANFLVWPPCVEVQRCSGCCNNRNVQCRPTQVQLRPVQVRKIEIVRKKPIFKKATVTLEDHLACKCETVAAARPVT
Protocol: as §1

VEGF-A [3] = target: T1, VEGF-A (human, UniProt P15692 207-395); assay: Biacore SPR; DVD-Ig captured on anti-human Fc, antigen injected
T1 construct: also called hVEGF165
T1 sequence (P15692 other isoform, or with tags, fused parts or gaps limits assumed): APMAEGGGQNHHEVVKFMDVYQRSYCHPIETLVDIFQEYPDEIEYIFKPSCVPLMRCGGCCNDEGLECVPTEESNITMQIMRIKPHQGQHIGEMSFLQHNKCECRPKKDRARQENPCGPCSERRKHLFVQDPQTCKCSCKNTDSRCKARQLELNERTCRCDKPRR
Procedure, shortened: (§2)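 Antibodies or DVD-Ig molecules (1 μg/ml) were captured on an anti-human Fc CM5 surface, with antigen injected in solution and responses referenced to the capture-only surface. Rate constants came from a global 1:1 Langmuir fit, and KD = koff/kon.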

PDGF-BB [4] = target: T2, PDGF-BB (human, UniProt P01127 82-190, limits assumed); assay: as above
T2 construct: also called human PDGF-BB; hPDGF-BB
T2 sequence (P01127 82-190 limits assumed): as the sequence (P01127 82-190) above
Procedure, shortened: as §2

VEGF-A (UniProt P15692-4 27-191, limits assumed), sequence (P15692 other isoform, or with tags, fused parts or gaps limits assumed): as the sequence (P15692 other isoform, or with tags, fused parts or gaps limits assumed) above

B3: 4G8.5_GS_CL-33675 (PR-1611291) (bispecific antibody, human IgG1, kappa, L234A L235A)
heavy: EIQLVQSGSELKKPGASVKVSCKASGYTFTNYGMYWVRQAPGQGLEYMGWINTETGKPTYADDFKGRFVFSLDTSVSTAYLQISSLKAEDTAVYFCARTNYYYRSYIFYFDYWGQGTMVTVSSGGGGSGGGGSEVTLRESGPALVKPTQTLTLTCTFSGFSLSTYGMGVGWIRQPPGKALEWLANIWWDDDKYYNPSLKNRLTISKDTSKNQVVLTMTNMDPVDTATYYCARIESSGPKYSFDYWGQGTMVTVSSASTKGPSVFPLAPSSKSTSGGTAALGCLVKDYFPEPVTVSWNSGALTSGVHTFPAVLQSSGLYSLSSVVTVPSSSLGTQTYICNVNHKPSNTKVDKKVEPKSCDKTHTCPPCPAPEAAGGPSVFLFPPKPKDTLMISRTPEVTCVVVDVSHEDPEVKFNWYVDGVEVHNAKTKPREEQYNSTYRVVSVLTVLHQDWLNGKEYKCKVSNKALPAPIEKTISKAKGQPREPQVYTLPPSREEMTKNQVSLTCLVKGFYPSDIAVEWESNGQPENNYKTTPPVLDSDGSFFLYSKLTVDKSRWQQGNVFSCSVMHEALHNAYTQKSLSLSPGK
light: ATQLTQSPSLSASVGDRVTITCRASESVSTHMHWYQQKPGKQPKLLIYGASNLESGVPSRFSGSGSGTDFTLTISSLQPEDFATYFCQQSWNDPFTFGQGTKLEIKGGSGGGGSGGEIVLTQSPGTLSLSPGERATLSCRASSGSIWYSFVSWYQQKPGQAPRLLIYADDQRASGIPDRFSGSGSGTDFTLTISRLEPEDFAVYYCQSYGINIDVVFGGGTKVEIKRTVAAPSVFIFPPSDEQLKSGTASVVCLLNNFYPREAKVQWKVDNALQSGNSQESVTEQDSKDSTYSLSSTLTLSKADYEKHKVYACEVTHQGLSSPVTKSFNRGEC
notes: DVD-Ig: outer hBDB-4G8.5 (VEGF), inner CL-33675 (PDGF), linkers GS-H10/GS-L10(dR); Human IgG1 L234A, L235A, H435A with kappa
Kd (VEGF-A [3]): 6.6 pM
kon (VEGF-A [3]): 4.7e+06 M⁻¹ s⁻¹
Kd (PDGF-BB [4]): 0.74 pM
kon (PDGF-BB [4]): 1.6e+07 M⁻¹ s⁻¹

B4: 4G8.5_GS_9E8.4 (PR-1612489) (bispecific antibody, human IgG1, kappa, L234A L235A)
heavy: B3 heavy with S236I, P238T, K239T
light: ATQLTQSPSLSASVGDRVTITCRASESVSTHMHWYQQKPGKQPKLLIYGASNLESGVPSRFSGSGSGTDFTLTISSLQPEDFATYFCQQSWNDPFTFGQGTKLEIKGGSGGGGSGGEFVLTQSPGTLSLSPGERATLSCERSSGDIGDSYVSWYQQKPGQAPRLVIYADDQRPSGIPDRFSGSGSGTDFTLTISRLEPEDFAVYYCQSYDINIDIVFGGGTKVEIKRTVAAPSVFIFPPSDEQLKSGTASVVCLLNNFYPREAKVQWKVDNALQSGNSQESVTEQDSKDSTYSLSSTLTLSKADYEKHKVYACEVTHQGLSSPVTKSFNRGEC
notes: DVD-Ig: outer hBDB-4G8.5 (VEGF), inner hBDI-9E8.4 (PDGF), linkers GS-H10/GS-L10(dR); Human IgG1 L234A, L235A, H435A with kappa
Kd (VEGF-A [3]): 8.5 pM
kon (VEGF-A [3]): 5.4e+06 M⁻¹ s⁻¹
Kd (PDGF-BB [4]): 28 pM
kon (PDGF-BB [4]): 5.8e+06 M⁻¹ s⁻¹

B6: 4G8.5_GS_3E2.1 (PR-1610560) (bispecific antibody, human IgG1, kappa, L234A L235A)
heavy: EIQLVQSGSELKKPGASVKVSCKASGYTFTNYGMYWVRQAPGQGLEYMGWINTETGKPTYADDFKGRFVFSLDTSVSTAYLQISSLKAEDTAVYFCARTNYYYRSYIFYFDYWGQGTMVTVSSGGGGSGGGGSEVQLVQSGAEVKKPGSSVKVSCKASGYTFTESYMYWVKQAPGQGLELIGRIDPEDGSTDYVEKFKNKATLTADKSTSTAYMELSSLRSEDTAVYFCARFGARSYFYPMDAWGQGTTVTVSSASTKGPSVFPLAPSSKSTSGGTAALGCLVKDYFPEPVTVSWNSGALTSGVHTFPAVLQSSGLYSLSSVVTVPSSSLGTQTYICNVNHKPSNTKVDKKVEPKSCDKTHTCPPCPAPEAAGGPSVFLFPPKPKDTLMISRTPEVTCVVVDVSHEDPEVKFNWYVDGVEVHNAKTKPREEQYNSTYRVVSVLTVLHQDWLNGKEYKCKVSNKALPAPIEKTISKAKGQPREPQVYTLPPSREEMTKNQVSLTCLVKGFYPSDIAVEWESNGQPENNYKTTPPVLDSDGSFFLYSKLTVDKSRWQQGNVFSCSVMHEALHNAYTQKSLSLSPGK
light: ATQLTQSPSLSASVGDRVTITCRASESVSTHMHWYQQKPGKQPKLLIYGASNLESGVPSRFSGSGSGTDFTLTISSLQPEDFATYFCQQSWNDPFTFGQGTKLEIKGGSGGGGSGGETVLTQSPATLSLSPGERATLSCRASESVSTLMHWYQQKPGQQPRLLIYGASNLESGVPARFSGSGSGTDFTLTISSLEPEDFAVYFCQQSWNDPWTFGGGTKVEIKRTVAAPSVFIFPPSDEQLKSGTASVVCLLNNFYPREAKVQWKVDNALQSGNSQESVTEQDSKDSTYSLSSTLTLSKADYEKHKVYACEVTHQGLSSPVTKSFNRGEC
notes: DVD-Ig: outer hBDB-4G8.5 (VEGF), inner hBFU-3E2.1 (PDGF), linkers GS-H10/GS-L10(dR); Human IgG1 L234A, L235A, H435A with kappa
Kd (VEGF-A [3]): 8.7 pM
kon (VEGF-A [3]): 4.8e+06 M⁻¹ s⁻¹
Kd (PDGF-BB [4]): 13 pM
kon (PDGF-BB [4]): 4.1e+07 M⁻¹ s⁻¹

Next, values leading:

Kd (VEGF-A [1]): 780 pM
kon (VEGF-A [1]): 160000 M⁻¹ s⁻¹
Kd (PDGF-BB [2]): 20 pM
kon (PDGF-BB [2]): 1e+07 M⁻¹ s⁻¹
B1: 9E8.4-SS-4G8.3 (PR-1563990) (bispecific antibody, human IgG1, kappa, L234A L235A)
heavy: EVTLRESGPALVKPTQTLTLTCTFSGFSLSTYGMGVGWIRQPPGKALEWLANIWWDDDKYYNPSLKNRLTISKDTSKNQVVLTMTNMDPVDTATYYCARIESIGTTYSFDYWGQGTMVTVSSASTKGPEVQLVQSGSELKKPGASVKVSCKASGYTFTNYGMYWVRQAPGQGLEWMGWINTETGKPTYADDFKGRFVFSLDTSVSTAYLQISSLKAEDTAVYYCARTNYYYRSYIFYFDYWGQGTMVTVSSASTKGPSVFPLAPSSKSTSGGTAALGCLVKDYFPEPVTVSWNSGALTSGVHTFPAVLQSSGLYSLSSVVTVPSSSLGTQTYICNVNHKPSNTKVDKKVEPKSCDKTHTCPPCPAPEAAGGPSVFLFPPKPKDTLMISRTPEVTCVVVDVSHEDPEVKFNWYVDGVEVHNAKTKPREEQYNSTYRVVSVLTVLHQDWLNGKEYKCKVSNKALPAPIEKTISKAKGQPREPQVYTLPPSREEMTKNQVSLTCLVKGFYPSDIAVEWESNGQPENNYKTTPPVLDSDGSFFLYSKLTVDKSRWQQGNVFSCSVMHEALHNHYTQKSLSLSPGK
light: EFVLTQSPGTLSLSPGERATLSCERSSGDIGDSYVSWYQQKPGQAPRLVIYADDQRPSGIPDRFSGSGSGTDFTLTISRLEPEDFAVYYCQSYDINIDIVFGGGTKVEIKGTVAAPDTVLTQSPATLSLSPGERATLSCRASESVSTHMHWYQQKPGQAPRLLIYGASNLESGVPARFSGSGSGTDFTLTISSLEPEDFAVYFCQQSWNDPFTFGQGTKLEIKRTVAAPSVFIFPPSDEQLKSGTASVVCLLNNFYPREAKVQWKVDNALQSGNSQESVTEQDSKDSTYSLSSTLTLSKADYEKHKVYACEVTHQGLSSPVTKSFNRGEC
notes: DVD-Ig; outer hBDI-9E8.4 (PDGF), linkers HG-short/LK-short, inner hBDB-4G8.3 (VEGF); human IgG1 L234A, L235A / kappa

Kd (VEGF-A [1]): 290 pM
kon (VEGF-A [1]): 220000 M⁻¹ s⁻¹
Kd (PDGF-BB [2]): 20 pM
kon (PDGF-BB [2]): 1e+07 M⁻¹ s⁻¹
B2: 9E8.4-GS-4G8.3 (PR-1563988) (bispecific antibody, human IgG1, kappa, L234A L235A)
heavy: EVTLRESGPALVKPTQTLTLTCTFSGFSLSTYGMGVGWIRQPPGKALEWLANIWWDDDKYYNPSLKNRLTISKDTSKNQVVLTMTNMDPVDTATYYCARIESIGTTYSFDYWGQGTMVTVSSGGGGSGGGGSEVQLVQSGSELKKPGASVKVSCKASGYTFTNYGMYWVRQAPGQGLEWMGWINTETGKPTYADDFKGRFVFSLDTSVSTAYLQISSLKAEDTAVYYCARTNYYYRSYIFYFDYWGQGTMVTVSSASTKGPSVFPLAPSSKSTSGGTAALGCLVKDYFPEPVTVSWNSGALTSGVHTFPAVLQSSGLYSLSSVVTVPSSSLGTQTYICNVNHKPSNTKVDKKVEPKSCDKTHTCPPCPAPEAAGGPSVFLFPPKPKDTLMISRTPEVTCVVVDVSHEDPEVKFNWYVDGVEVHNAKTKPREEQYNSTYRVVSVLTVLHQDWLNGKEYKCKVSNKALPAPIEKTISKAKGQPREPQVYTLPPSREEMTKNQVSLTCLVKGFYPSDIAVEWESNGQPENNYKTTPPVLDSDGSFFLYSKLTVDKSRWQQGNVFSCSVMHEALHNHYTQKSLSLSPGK
light: EFVLTQSPGTLSLSPGERATLSCERSSGDIGDSYVSWYQQKPGQAPRLVIYADDQRPSGIPDRFSGSGSGTDFTLTISRLEPEDFAVYYCQSYDINIDIVFGGGTKVEIKGGGSGGGGSGDTVLTQSPATLSLSPGERATLSCRASESVSTHMHWYQQKPGQAPRLLIYGASNLESGVPARFSGSGSGTDFTLTISSLEPEDFAVYFCQQSWNDPFTFGQGTKLEIKRTVAAPSVFIFPPSDEQLKSGTASVVCLLNNFYPREAKVQWKVDNALQSGNSQESVTEQDSKDSTYSLSSTLTLSKADYEKHKVYACEVTHQGLSSPVTKSFNRGEC
notes: DVD-Ig; outer hBDI-9E8.4 (PDGF), linkers GS-H10/GS-L10, inner hBDB-4G8.3 (VEGF); human IgG1 L234A, L235A / kappa

Kd (VEGF-A [3]): 1.4 pM
kon (VEGF-A [3]): 1.2e+07 M⁻¹ s⁻¹
Kd (PDGF-BB [4]): 12 pM
kon (PDGF-BB [4]): 4.5e+07 M⁻¹ s⁻¹
B5: CL-34565_GS_3E2.1 (PR-1613185) (bispecific antibody, human IgG1, kappa, L234A L235A)
heavy: B6 heavy with I2V, N31D, Y47W, N52D, K57D, F95Y, S105N, I107M
light: EIVLTQSPATLSLSPGERATLFCRASQSVSNHMHWYQQKPGQAPRLLIYGASILESGVPARFSGSGSGTDFTLTISSLEPEDFAVYYCQQSWYDPITFGQGTKLEIKGGSGGGGSGGETVLTQSPATLSLSPGERATLSCRASESVSTLMHWYQQKPGQQPRLLIYGASNLESGVPARFSGSGSGTDFTLTISSLEPEDFAVYFCQQSWNDPWTFGGGTKVEIKRTVAAPSVFIFPPSDEQLKSGTASVVCLLNNFYPREAKVQWKVDNALQSGNSQESVTEQDSKDSTYSLSSTLTLSKADYEKHKVYACEVTHQGLSSPVTKSFNRGEC
notes: DVD-Ig: outer CL-34565 (VEGF), inner hBFU-3E2.1 (PDGF), linkers GS-H10/GS-L10(dR); Human IgG1 L234A, L235A, H435A with kappa
